Measurements from patent publication US20240285782A1, “METHODS FOR USING BIOADHESIVE AND STERIC INTERACTIONS OF COPOLYMERS WITH AT LEAST TWO MOIETIES TO MINIMIZE ADVERSE EFFECTS MEDIATED BY EXTERNAL INFLUENCES ON CELL, TISSUE, ORGAN SYSTEM, AND ORGANISM BIOLOGY” (priority 2021, published 2024).
Where two headings read alike, the source gives them in different places.

How the values were obtained:
corneal cell = details: low dose exposure; cited from earlier work
[1] = cited from earlier work

Compound | toxicity to cells, corneal cell death (corneal cell) | toxicity (positive control, pilot evaluation FIG. 8) (HCE-T cells) | half-life ([1]; after the first infusion) [days] | half-life ([1]; in steady state) [days] | time to reach steady state ([1]; in vivo) [days]
CCN(c1nc(N)c(C(=O)N=C(N)N)nc1Cl)C(C)C [EIPA, 5-(N-ethyl-N-isopropyl)amiloride] | toxic | toxic |  |  | 
Belnatomab mafodotin: ADC cited as an example for half-life |  |  | 12 | 14 | 70
